No end group written: not given here. *: point of attachment. FITC = O=C1OC2(c3ccc(O)cc3Oc3cc(O)ccc32)c2ccc(NC(=S)*)cc21
Assays:
[1] = biological target: T1, eIF4GI557-1599 (human, UniProt Q04637 557-1599); assay: fluorescence anisotropy; mRNA pre-bound by eIF4E•4E-BP1; 20 mM HEPES-KOH pH 7.5, 200 mM KCl, 1 mM MgCl2, 25 °C; 10 nM labeled mRNA; pre-assembly with 0.5 uM eIF4E and 1 uM 4E-BP1; settings: protein: recombinant; tags: N-terminal 6xHis, TEV-cleaved; label: 3' fluorescein; structured 5'UTR
[2] = biological target: T2, eIF4GI557-1599;eIF4A (human;human?, UniProt Q04637;P60842 557-1599;1-406, |); assay: as above; settings: protein: recombinant;recombinant, tags: N-terminal 6xHis, TEV-cleaved;N-terminal His-MBP, copies: 1;1, label: 3' fluorescein; for Kd: structured 5'UTR
[3] = biological target: T1, eIF4GI557-1599; assay: fluorescence anisotropy; 20 mM HEPES-KOH pH 7.5, 200 mM KCl, 1 mM MgCl2, 25 °C; 10 nM labeled mRNA; pre-assembly with 0.5 uM eIF4E and 1 uM 4E-BP1; settings: protein: recombinant, tags: N-terminal 6xHis, TEV-cleaved, label: 3' fluorescein; for Kd: structured 5'UTR
[4] = biological target: eIF4E (human, UniProt P06730 1-217); assay: as above; settings: protein: recombinant, tags: N-terminal polyHis, TEV-cleaved, label: 3' fluorescein
[5] = biological target: 4E-BP1 (human, UniProt Q13541 1-118); assay: as above; settings: protein: recombinant, tags: N-terminal 6xHis, TEV-cleaved, label: 3' fluorescein
[6] = biological target: eIF4E;4E-BP1 (human;human, UniProt P06730;Q13541 1-217;1-118, |); assay: as above; settings: protein: recombinant;recombinant, tags: N-terminal polyHis, TEV-cleaved;N-terminal 6xHis, copies: 1;1, label: 3' fluorescein
[7] = biological target: T1, eIF4GI557-1599; assay: fluorescence anisotropy; mRNA pre-bound by eIF4E•FITC-4E-BP1 peptide (label on peptide); 20 mM HEPES-KOH pH 7.5, 200 mM KCl, 1 mM MgCl2, 25 °C; 10 nM labeled mRNA; pre-assembly with 0.5 uM eIF4E and 1 uM 4E-BP1; settings: protein: recombinant; tags: N-terminal 6xHis, TEV-cleaved; label: 3' fluorescein; structured 5'UTR
[8] = biological target: T2, eIF4GI557-1599;eIF4A; assay: fluorescence anisotropy; ATP; mRNA pre-bound by eIF4E•4E-BP1; text gives error 1.5; 20 mM HEPES-KOH pH 7.5, 200 mM KCl, 1 mM MgCl2, 25 °C; 10 nM labeled mRNA; pre-assembly with 0.5 uM eIF4E and 1 uM 4E-BP1; settings: protein: recombinant;recombinant, tags: N-terminal 6xHis, TEV-cleaved;N-terminal His-MBP, copies: 1;1, label: 3' fluorescein, structured 5'UTR
[9] = biological target: T2, eIF4GI557-1599;eIF4A; assay: fluorescence anisotropy; ATP; mRNA pre-bound by eIF4E•4E-BP1; 20 mM HEPES-KOH pH 7.5, 200 mM KCl, 1 mM MgCl2, 25 °C; 10 nM labeled mRNA; pre-assembly with 0.5 uM eIF4E and 1 uM 4E-BP1; settings: protein: recombinant;recombinant, tags: N-terminal 6xHis, TEV-cleaved;N-terminal His-MBP, copies: 1;1, label: 3' fluorescein, structured 5'UTR
[10] = biological target: T1, eIF4GI557-1599; assay: fluorescence anisotropy; mRNA pre-bound by eIF4E•FITC-4E-BP1 peptide (label on peptide); text gives error 0.7; 20 mM HEPES-KOH pH 7.5, 200 mM KCl, 1 mM MgCl2, 25 °C; 10 nM labeled mRNA; pre-assembly with 0.5 uM eIF4E and 1 uM 4E-BP1; settings: protein: recombinant; tags: N-terminal 6xHis, TEV-cleaved; label: 3' fluorescein; structured 5'UTR
[11] = biological target: eukaryotic initiation factor 4E (eIF4E) (human, UniProt P06730 1-217); assay: fluorescence polarisation; fluorescence anisotropy; 20 nM FITC-labelled 4E-BP1 peptide, free or preincubated with 10 nM eIF4E for 20 min at 25 °C, titrated with protein (eIF4E: 200 ul of 20 nM peptide with 2.5 uM eIF4E); no mRNA; Hill-equation fit; settings: both partners purified
[12] = biological target: T2, eIF4GI557-1599;eIF4A; assay: fluorescence anisotropy; mRNA pre-bound by eIF4E•4E-BP1; text gives error 1.0; 20 mM HEPES-KOH pH 7.5, 200 mM KCl, 1 mM MgCl2, 25 °C; 10 nM labeled mRNA; pre-assembly with 0.5 uM eIF4E and 1 uM 4E-BP1; settings: protein: recombinant;recombinant, tags: N-terminal 6xHis, TEV-cleaved;N-terminal His-MBP, copies: 1;1, label: 3' fluorescein, structured 5'UTR
[13] = biological target: T1, eIF4GI557-1599; assay: fluorescence anisotropy; text gives error 3.1; 20 mM HEPES-KOH pH 7.5, 200 mM KCl, 1 mM MgCl2, 25 °C; 10 nM labeled mRNA; pre-assembly with 0.5 uM eIF4E and 1 uM 4E-BP1; settings: protein: recombinant; tags: N-terminal 6xHis, TEV-cleaved; label: 3' fluorescein; structured 5'UTR
[14] = biological target: T1, eIF4GI557-1599; assay: fluorescence anisotropy; mRNA pre-bound by eIF4E•FITC-4E-BP1 peptide (label on peptide); text gives error 1.5; 20 mM HEPES-KOH pH 7.5, 200 mM KCl, 1 mM MgCl2, 25 °C; 10 nM labeled mRNA; pre-assembly with 0.5 uM eIF4E and 1 uM 4E-BP1; settings: protein: recombinant; tags: N-terminal 6xHis, TEV-cleaved; label: 3' fluorescein; structured 5'UTR

eIF4E;4E-BP1, sequence (P06730 whole entry, chain 1 of 2): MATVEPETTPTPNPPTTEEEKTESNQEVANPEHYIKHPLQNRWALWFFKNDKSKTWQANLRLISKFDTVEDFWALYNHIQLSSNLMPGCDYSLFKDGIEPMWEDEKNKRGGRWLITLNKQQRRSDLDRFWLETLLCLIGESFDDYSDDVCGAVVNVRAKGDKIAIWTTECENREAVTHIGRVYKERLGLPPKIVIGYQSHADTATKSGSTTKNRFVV
eIF4E;4E-BP1, sequence (Q13541 whole entry, chain 2 of 2): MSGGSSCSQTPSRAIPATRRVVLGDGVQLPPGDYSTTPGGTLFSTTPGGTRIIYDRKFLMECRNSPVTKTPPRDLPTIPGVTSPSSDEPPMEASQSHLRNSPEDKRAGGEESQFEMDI
eIF4E, sequence (P06730 whole entry): as the sequence (P06730 whole entry, chain 1 of 2) above
T1 sequence (Q04637 557-1599): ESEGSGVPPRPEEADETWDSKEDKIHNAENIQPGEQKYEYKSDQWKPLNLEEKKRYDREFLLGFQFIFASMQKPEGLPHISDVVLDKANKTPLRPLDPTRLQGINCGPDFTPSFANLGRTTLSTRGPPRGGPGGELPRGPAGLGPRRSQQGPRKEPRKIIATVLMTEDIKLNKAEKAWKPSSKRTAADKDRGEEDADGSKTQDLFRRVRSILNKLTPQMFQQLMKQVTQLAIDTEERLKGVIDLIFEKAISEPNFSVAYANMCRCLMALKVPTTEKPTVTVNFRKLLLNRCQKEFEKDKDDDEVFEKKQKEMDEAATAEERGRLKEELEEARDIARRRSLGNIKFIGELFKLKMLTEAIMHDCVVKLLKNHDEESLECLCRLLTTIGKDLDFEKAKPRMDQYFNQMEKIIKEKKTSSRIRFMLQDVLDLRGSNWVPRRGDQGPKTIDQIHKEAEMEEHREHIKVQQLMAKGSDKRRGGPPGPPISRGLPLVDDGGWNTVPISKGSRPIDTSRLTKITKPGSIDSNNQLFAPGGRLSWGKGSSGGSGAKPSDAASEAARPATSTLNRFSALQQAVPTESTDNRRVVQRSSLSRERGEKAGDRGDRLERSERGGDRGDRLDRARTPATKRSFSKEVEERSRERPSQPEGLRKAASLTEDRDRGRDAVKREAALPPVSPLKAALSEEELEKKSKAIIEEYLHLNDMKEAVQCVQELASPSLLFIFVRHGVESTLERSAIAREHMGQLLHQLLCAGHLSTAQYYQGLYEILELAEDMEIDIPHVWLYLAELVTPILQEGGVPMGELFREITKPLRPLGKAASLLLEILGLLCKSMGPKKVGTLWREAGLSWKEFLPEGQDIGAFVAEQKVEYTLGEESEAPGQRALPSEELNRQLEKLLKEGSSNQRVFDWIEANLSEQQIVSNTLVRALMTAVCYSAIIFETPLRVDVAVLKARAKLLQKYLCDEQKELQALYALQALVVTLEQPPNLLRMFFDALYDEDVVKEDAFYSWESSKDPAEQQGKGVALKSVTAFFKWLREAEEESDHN
T2 sequence (Q04637 557-1599, chain 1 of 2): as the sequence (Q04637 557-1599) above
T2 sequence (P60842 whole entry, chain 2 of 2): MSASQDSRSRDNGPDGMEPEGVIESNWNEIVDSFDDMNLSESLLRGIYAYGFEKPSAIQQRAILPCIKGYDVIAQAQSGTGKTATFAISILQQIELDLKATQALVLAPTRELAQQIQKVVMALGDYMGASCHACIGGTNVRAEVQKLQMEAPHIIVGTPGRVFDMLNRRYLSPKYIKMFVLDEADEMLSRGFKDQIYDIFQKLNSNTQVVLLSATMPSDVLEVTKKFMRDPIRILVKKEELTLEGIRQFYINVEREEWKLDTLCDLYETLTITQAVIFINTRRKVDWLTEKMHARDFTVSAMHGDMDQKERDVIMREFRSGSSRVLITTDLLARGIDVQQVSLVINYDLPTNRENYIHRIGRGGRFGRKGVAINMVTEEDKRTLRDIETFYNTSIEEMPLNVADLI
4E-BP1, sequence (Q13541 whole entry): as the sequence (Q13541 whole entry, chain 2 of 2) above
eukaryotic initiation factor 4E (eIF4E), sequence (P06730 whole entry): as the sequence (P06730 whole entry, chain 1 of 2) above

| Binder | Kd [1] [nM] | Kd [2] [nM] | Kd [3] [nM] | Kd ([4]; structured 5'UTR) [nM] | binding result ([5]; structured 5'UTR) | Kd ([6]; structured 5'UTR) [nM] | Kd [7] [nM] | Kd [8] [nM] | Kd [9] [nM] | Kd [10] [nM] | Kd [11] [nM] | Kd [12] [nM] | binding result ([2]; unstructured control) | binding result ([3]; unstructured control) | Kd ([4]; unstructured control) [nM] | binding result ([5]; unstructured control) | Kd ([6]; unstructured control) [nM] | Kd [13] [nM] | Kd [14] [nM] |
| --- | --- | --- | --- | --- | --- | --- | --- | --- | --- | --- | --- | --- | --- | --- | --- | --- | --- | --- | --- |
| m7G HIF-1alpha 5'UTR (structured_RNA, 5' m7G cap) RNA: AGUGCACAGUGCUGCCUCGUCUGAGGGGACAGGAGGAUCACCCUCUUCGUCGCUUCGGCCAGUGGUCGGGCUGGGCCCUGACAAGCCACCUGAGGAGAGGCUCGGAGCCGGGCCCGGACCCCGGCGAUUGCCGCCCGCUUCUCUCUAGUCUCACGAGGGGUUUCCCGCCUCGCACCCCCACCUCUGGACUUGCCUUUCCUUCUCUUCUCCGCGUGUGGAGGGAGCCAGCGCUUAGGCCGGAGCGAGCCUGGGGGCCGCCCGCCGUGAAGACAUCGCGGGGACCGAUUCACC | 15 ± 3.4 | 20 ± 1.3 | 22 ± 0.5 | 56 ± 1.5 | no binding | 15 ± 3.4 | 21 ± 0.7 | 21 ± 0.5 | – | – | – | – | – | – | – | – | – | – | – |
| ApppG HIF-1alpha 5'UTR (structured_RNA, 5' ApppG cap (non-functional)) RNA: AGUGCACAGUGCUGCCUCGUCUGAGGGGACAGGAGGAUCACCCUCUUCGUCGCUUCGGCCAGUGGUCGGGCUGGGCCCUGACAAGCCACCUGAGGAGAGGCUCGGAGCCGGGCCCGGACCCCGGCGAUUGCCGCCCGCUUCUCUCUAGUCUCACGAGGGGUUUCCCGCCUCGCACCCCCACCUCUGGACUUGCCUUUCCUUCUCUUCUCCGCGUGUGGAGGGAGCCAGCGCUUAGGCCGGAGCGAGCCUGGGGGCCGCCCGCCGUGAAGACAUCGCGGGGACCGAUUCACC | 25 ± 1.8 | 19 ± 0.6 | 67 ± 1.8 | 199 ± 1.5 | no binding | 52 ± 0.5 | 30 ± 3.1 | – | 24 ± 4.3 | – | – | – | – | – | – | – | – | – | – |
| m7G p53B 5'UTR (structured_RNA, 5' m7G cap) RNA: AUGGAGGAGCCGCAGUCAGAUCCUAGCGUCGAGCCCCCUCUGAGUCAGGAAACAUUUUCAGACCUAUGGAAACUACUUCCUGAAAACAACGUUCUGUCCCCCUUGCCGUCCCAAGCA | 18 ± 0.3 | 21 ± 2.2 | 18 ± 3.1 | 54 ± 2.3 | no binding | 28 ± 2.3 | 47 ± 0.7 | – | 22 ± 1.1 | – | – | – | – | – | – | – | – | – | – |
| ApppG p53B 5'UTR (structured_RNA, 5' ApppG cap (non-functional)) RNA: AUGGAGGAGCCGCAGUCAGAUCCUAGCGUCGAGCCCCCUCUGAGUCAGGAAACAUUUUCAGACCUAUGGAAACUACUUCCUGAAAACAACGUUCUGUCCCCCUUGCCGUCCCAAGCA | 22 ± 0.8 | 28 ± 1.8 | 66 ± 1.7 | 159 ± 4.2 | no binding | 89 ± 3.5 | – | – | 21 ± 1.1 | 42 ± 2 | – | – | – | – | – | – | – | – | – |
| PGGTRIIYDRK(FITC)FLMECRNSP (also called FITC-4E-BP1 peptide; 4E-BP1-FITC-Peptide; source: synthetic peptide, bought: GenScript (>=98% purity)) [fluorescein-labeled 4E-BP1 peptide] | – | – | – | – | – | – | – | – | – | – | 5 ± 3.7 | – | – | – | – | – | – | – | – |
| m7G FGF-9 5'UTR (structured_RNA, 5' m7G cap) RNA: GAAACAGCAGAUUACUUUUAUUUAUGCAUUUAAUGGAUUGAAGAAAAGAACCUUUUUUUUUCUCUCUCUCUCUGCAACUGCAGUAAGGGAGGGGAGUUGGAUAUACCUCGCCUAAUAUCUCCUGGGUUGACACCAUCAUUAUUGUUUAUUCUUGUGCUCCAAAAGCCGAGUCCUCUG | 24 ± 0.9 | 23 ± 1.3 | 20 ± 2 | 72 ± 1.6 | no binding | 32 ± 3.9 | 32 ± 0.3 | – | 24 ± 1.5 | – | – | – | – | – | – | – | – | – | – |
| ApppG FGF-9 5'UTR (structured_RNA, 5' ApppG cap (non-functional)) RNA: GAAACAGCAGAUUACUUUUAUUUAUGCAUUUAAUGGAUUGAAGAAAAGAACCUUUUUUUUUCUCUCUCUCUCUGCAACUGCAGUAAGGGAGGGGAGUUGGAUAUACCUCGCCUAAUAUCUCCUGGGUUGACACCAUCAUUAUUGUUUAUUCUUGUGCUCCAAAAGCCGAGUCCUCUG | 13 ± 0.6 | – | 28 ± 0.7 | 138 ± 4.6 | no binding | 87 ± 2 | 25 ± 1 | – | 18 ± 1 | – | – | 15 ± 0.3 | – | – | – | – | – | – | – |
| m7G beta-actin 5'UTR (structured_RNA, 5' m7G cap) RNA: GGACCGCCGAGACCGCGUCCGCCCCGCGAGCACAGAGCCUCGCCUUUGCCGAUCCGCCGCCCGCCACACCCGCCGCCAGCUCAC | – | – | – | – | – | – | – | – | – | – | – | – | no binding | no binding | 28 ± 1.8 | no binding | 12 ± 0.6 | – | – |
| m7G p53A 5'UTR (structured_RNA, 5' m7G cap) RNA: UCUAGAGCCACCGUCCAGGGAGCAGGUAGCUGCUGGGCUCCGGGGACACUUUGCGUUCGGGCUGGGAGCGUGCUUUCCACGACGGUGACACGCUUCCCUGGAUUGGCAGCCAGACUGCCUUCCGGGUCACUGCC | 31 ± 5.9 | 33 ± 0.7 | – | 59 ± 7.5 | no binding | 13 ± 1.1 | 29 ± 1.3 | – | 35 ± 1.3 | – | – | – | – | – | – | – | – | 44 ± 1 | – |
| ApppG p53A 5'UTR (structured_RNA, 5' ApppG cap (non-functional)) RNA: UCUAGAGCCACCGUCCAGGGAGCAGGUAGCUGCUGGGCUCCGGGGACACUUUGCGUUCGGGCUGGGAGCGUGCUUUCCACGACGGUGACACGCUUCCCUGGAUUGGCAGCCAGACUGCCUUCCGGGUCACUGCC | 25 ± 1.1 | 20 ± 2 | 81 ± 1.3 | 186 ± 0.8 | no binding | 45 ± 1.6 | – | – | 16 ± 0.8 | – | – | – | – | – | – | – | – | – | 35 ± 0.5 |
